From patent US20060223757, “Zinc finger binding domains for GNN” (published 2006)

Legend:
[1] = target: T1, E2C (six-finger Sp1C framework protein) (synthetic construct); assay: EMSA; ±15%; ZBA buffer with ZnCl2, room temperature
[2] = target: T2, E3 (six-finger Sp1C framework protein) (synthetic construct); assay: EMSA; ±15%; about 30-fold lower affinity than E3 target
[3] = target: T1, E2C (six-finger Sp1C framework protein); assay: EMSA; ±30%; 3 mismatches to E2C target
[4] = target: T2, E3 (six-finger Sp1C framework protein); assay: EMSA; ±10%; ZBA buffer with ZnCl2, room temperature

T2 sequence (chain, as listed by the source): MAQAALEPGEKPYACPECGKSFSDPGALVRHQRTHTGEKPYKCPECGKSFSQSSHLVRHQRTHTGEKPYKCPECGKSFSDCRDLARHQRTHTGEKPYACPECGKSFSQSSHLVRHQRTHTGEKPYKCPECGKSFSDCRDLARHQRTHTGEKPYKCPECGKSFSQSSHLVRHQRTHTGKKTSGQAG
T1 sequence (chain, as listed by the source): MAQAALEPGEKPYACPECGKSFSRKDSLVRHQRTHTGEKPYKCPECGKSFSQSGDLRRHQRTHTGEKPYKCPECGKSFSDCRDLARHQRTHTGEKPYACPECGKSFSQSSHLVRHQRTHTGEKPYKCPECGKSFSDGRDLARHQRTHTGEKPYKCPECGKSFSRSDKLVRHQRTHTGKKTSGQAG

B1: E2C target site (erbB-2 5'-UTR) (dsDNA)
DNA 1: GGGGCCGGAGCCGCAGTG
DNA 2: CACTGCGGCTCCGGCCCC
[1]
  Kd: 0.75 nM
[2]
  Kd: 10 nM

B2: E3 target site (erbB-3 5'-UTR) (dsDNA)
DNA 1: GGAGCCGGAGCCGGAGTC
DNA 2: GACTCCGGCTCCGGCTCC
[3]
  Kd: 11 nM
[4]
  Kd: 0.35 nM
